Measured values from patent US20240175869A1 (BROWN UNIVERSITY, published 2024).

Assays:
ALK6 [1] = target: T1, ALK6; assay: solid-phase binding assay, half max as printed (FIG. 9)
T1 construct: Soluble ALK6 titrated at 3.125-100 nM over immobilized MuSK constructs; That is inferred from the anti-human IgG Fc detection antibody; also called BMPR1b; BMPR1B

ALK6 [2] = target: T1, ALK6; assay: solid-phase binding assay, ALK6 at 100 nM, FL ECD against ΔIg2 (FIG. 7)

T1 sequence (O00238 whole entry, the tested form may be a part): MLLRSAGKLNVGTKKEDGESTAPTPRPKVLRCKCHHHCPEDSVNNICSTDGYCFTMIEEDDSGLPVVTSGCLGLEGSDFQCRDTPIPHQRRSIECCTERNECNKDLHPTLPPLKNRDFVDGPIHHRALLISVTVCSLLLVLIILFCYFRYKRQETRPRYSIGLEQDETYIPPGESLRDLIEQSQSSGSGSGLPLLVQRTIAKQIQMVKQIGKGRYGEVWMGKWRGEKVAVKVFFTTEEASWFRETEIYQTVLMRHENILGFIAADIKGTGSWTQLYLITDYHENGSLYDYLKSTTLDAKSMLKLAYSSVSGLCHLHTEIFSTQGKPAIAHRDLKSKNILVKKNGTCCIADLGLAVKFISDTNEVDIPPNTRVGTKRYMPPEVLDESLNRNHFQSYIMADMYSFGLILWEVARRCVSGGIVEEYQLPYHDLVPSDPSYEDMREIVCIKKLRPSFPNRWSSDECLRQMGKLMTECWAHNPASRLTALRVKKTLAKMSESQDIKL

B1: full-length ectodomain (FL ECD) of MuSK, His-tagged (receptor)
chain: EKLPKAPVITTPLETVDALVEEVATFMCAVESYPQPEISWTRNKILIKLFDTRYSIRENGQLLTILSVEDSDDGIYCCTANNGVGGAVESCGALQVKMKPKITRPPINVKIIEGLKAVLPCTTMGNPKPSVSWIKGDSALRENSRIAVLESGSLRIHNVQKEDAGQYRCVAKNSLGTAYSKLVKLEVEVFARILRAPESHNVTFGSFVTLRCTAIGMPVPTISWIENGNAVSSGSIQENVKDRVIDSRLQLFITKPGLYTCIATNKHGEKFSTAKAAATVSIAEWSKSQKESKGYCAQYRGEVCDAVLVKDSLVFFNTSYPDPEEAQELLIHTAWNELKAVSPLCRPAAEALLCNHLFQECSPGVLPTPMPICREYCLAVKELFCAKEWLAMEGKTHRGLYRSGMHFLPVPECSKLPSMHQDPTACTRLPYLDYKKENITTFPSITSSKPSVDIPNLPASTSSFAVSPAYSMT
ALK6 [1]
  EC50: ~0.5 nM
ALK6 [2]
  fold increase in absorbance against ΔIg2 MuSK: 6.6 fold
